We go through 20 sequences from the DeepSol protein solubility set.

The nature of the data set: soluble on expression in E. coli; label from the status in PepcDB or PDB records.
In the case of “MSLRKYPEYTWDLTTIFKDDEAFEAAFKEVENELGKEEQFKGHIGDSAETLYNALELEDTLGTKLEKVYVYAHLKQDQDTTNDKYTGMESRAHQLIIKFSSAWSFLVPEILQIDEDKIQSFVNSYDKLQKFAFDLKLINEKRPHILDAETEKLLTEAQDALSTPSNVYGMFSNADLVFEDAIDKDGNAHPLTQGTFIKYLESDDRKLRESAFRNVYKAYGAHNNTLGATLAGEVKKNVFNARTHNYKTAREKALSNNHIPENVYDNLVKTVHKYLPLLHRYTELRKELLGLDDLKMYDLYTPLIKDIKFEMPYEEAKEWMLKALEPMGEEYLNVVKEGLNNRWVDVYENKGKRSGGYSSGAHLTNPFILLNWSNTISDLYTLVHEFGHSAHSYFSRKFQPSNSSDYTIFVAEVASTCNEALLSDYMDKHLDDEKRLLLLNQELERFRATLFRQTMFAEFEHKIHAIEEAGEPLTPTRMNEEYAKLNKLYFGDSVETDEDISKEWSRIPHFYMNYYVYQYATGYSAAQSLSHQILTEGKPAVDRYINEFLKKGSSNYPIEILKNAGVDMTTPEPIEQACEVFEQKLNAFEKLMKEGHHHHHH”, the “soluble on expression in E. coli” value is “soluble”.

With “MGSDKIHHHHHHMKIQQPSVLIPDPCNNPLAYYAIRCLKQANSEFNINVIVSSGQTLDDNEWLYFYKYSAYIDNLVVSANSMNSLEYLDEVIRIIENQGINLIFPASEEGFKFVSKYRYKLSKFCRIVALPSEENLDAAFDKWKLHLLLQKHNIPTPETVLLKEIENISQFNYPVILKPVDGSGGKNIQKFDSLEEENFQAICNYPNDVYIVQKYVPGHDIGCSVLCQDGQVLAYTIQQQLGLTEGFTPKIDKLKFVHDSAVIDIVTKTMNVLKWSGIANLDLRYNSQTGQINVIEINPRFWQSLMGSLSVGVNFPYILYLLSNNISFERISYKEQYYAKFHRFIQDAFNGSLEYSLSDTNVKYFLSDPSGILHFLFYKLMKQKLFQNMKSIFSLQSQKIQNVK”, the “soluble on expression in E. coli” value is given as “not soluble”. As to “MAHHHHHHMNESVEQLFDELISDFNKNDKIGEGNESFNIREKVGNKWTNEDILNNINKNDFSKYTEYSLSSLYITDERIHIDEDNKFQDFLNVITKASDVNNIYKWIDSYYKYDSKEELDILSPKAQKKEYIFREYLEPFHLKGLCLLRKYEKGAILKSSEKSKVDVNIVSEYIVHNTYKQIMKSFGYYLSHKIYIKAHIFHNKYGNSDHIIVLILQHFKDENFKQPLFHDRALVQIKSYSNDNKYSELTQKNLLHYAEIFKPFVSLRKLNYNFVEEFKDKIMFGI”, the “soluble on expression in E. coli” value is on record as “soluble”.

Consider “KTLPRDEKEKQIADSKERLKSDTQKVKDAKNADAIKKAFEEGKVNIPQAHIPGDLNKDKEKLLAELKQKADDTEKAIDVDKT”, for which the “soluble on expression in E. coli” value is on record as “not soluble”. The result for “MGSDKIHHHHHHMKLGVFTVLYGNLSFTEMLDKVKGAGVQAVEIGTGGYPGDAHCPRQELLTSAEKRKRYQEELEQRGLLLGSFSCHGNPLSPDEAFRKESDQALRETIELAGKMNVPVVNCFSGTAGDHEGAKYPNWPVAPWPNEYRHILEWQWEEKLIPYWKEIGEWAETHGVKVALELHGGFLVHTPYTLLTLRKATSPAIGANLDPSHLWWQGIDPVAAIKILGREGAIHHFHAKDTFIDQEQVNMYGLTDMQPYTHIQTRAWNFRSVGCGHDLHEWTQMISALRTYGYDHVISIEHEDPLMSIDEGFETAVRNLKPLLIKEKPTEMWWA” reads “not soluble”.

For “MARHKCQDCGKTFDLKRYLTKHELRMHKNVVKSKNDRSASDPLKCSMCDKVFPRLSHLQRHQMTHLNVRNYSCTFCEEKFVQKSHLTRHVSRKHSNAPGVEVDWTACDKCGQLFKTTYEMRIHRQTYHELHKCKQCQEVIEAGSDGLRKHHMQCRKYSNVCDECGASFSRPADLVSHETSCLKKFAFVCKPCDSYFRQRVQLDRHIKKAHFHPTKCSKCEQISDTPVQNSRHSLECVKVIICGYCSLKNPDKNHVATVHWHRLKRAVSKSVTIRHKLKDAPIADKDVPSSSGQSSLEEEILDDSEDDLEDTGEGLSNREQFKNRDIKRENNLEEVKSSTDNRDEEDSLFNFPDTSTSQLDFCSTAFTEDDSFPGDYVTLSICPKNTDLSFDLRDRLPPELSELFPELEATSIVLLNKSIRCRMTVRVPVCIPKSSTQEAEMRKWLDMTVVLKDD”, the “soluble on expression in E. coli” value was “not soluble”. As for “MQGQHPPAELPSLRRQKILLLLERDGKVMAAELSRHFAVSEDTIRRDLAELDAGGLVQRVHGGALPRPKDSGKDYFTRVGETNEAKLRLAQYAVQWVQDGQTVLFDSGSTTLHIAQSLPAGISLTAVTASPMIAVALAEYPKVRVILAGGQLNPATLSASGHEALRMIQGIKADLMFTGVCAIHPEIGISSLHFDEVPIKQAMFDSASEVIAVTTADKLGAMEPFVVVPCNRLHRLVTEQEAPGVDIEGYRQLGIEVLQVLEHHHHHH”, the “soluble on expression in E. coli” value was “not soluble”. The result for “ITDNTLIRNDTGDGDAVYDLVLNADGLDEDYSYQLKVMEEQPSDKQANELFTQAKKEIDDSFCEENQSVEQVRGHVIMKDAYASGAVEAEWTLSDYDVVDINGDVNQDAFEEADDEQGKLISASVELSCGEHRQLYDFSFVVFPDELEAGERLIKDINRHIDSEMSKTGTKKLTLPDEVDGVKLSWSQEKSNTAAKIAMLEVVVIVLLVLEKKEKKKTAQKERNIQLQLEYPEIVSKMAVLMGSGMTVEQAWNRITARYLDERKNNDKNIMPAYEEMLVTEREISDGVTGRKAYAGFAERVKLPCYQKLVRIILQSIHKGSKGVCEMLEKESEDAFDERRLLALKLGEEAGTKM” reads “not soluble”; that for “MTDLQVFEMNPQLNFPISDKTIYQMGFNSSAAQPSAANYVTESNSLTNHLQILDLLNPQTSSGSDDKKRQFFADLMTPHYEKQAEIEKKIDDLSEVVHQFIQSQQSLNKLILEKCLGRIPSPRMTSPHQPEDNSIDDMDPPVQEEIEEKIENDTFGQNEVTVNQQPINNPMPVYPVPISHEPANLHSPIRNRSISPEKMDTTGNSGAGMSVRDFLKNTMTVQKADEKILEEELERERDEAAQTVRYNKFRVRNRPKKYKRSAVTFTSSLEAATSSSSSTIPHQDQGPTFSTHSTIGNSSDTSQLMEQLDQSQNDSIDIEENVYQPIVVPCVQRAPELDLTLMQPVFSTASSYVLNSSALDPTTHQAQSSLSALTDSKFQTDPNNLWKAVDGVSQLLVDAPSLLESDLRSFTDHSHHSSFLPFVANHEPLHRSAFLPPQYHKDRRIHQQMDSHLSDTLRNL”, “not soluble”; that for “MGSSHHHHHHSSGLVPRGSHMYLGRILAVGRNSNGSFVAYRVSSRSFPNRTTSIQEERVAVVPVEGHERDVFRNPYIAYNCIRIVGDTAVVSNGSHTDTIADKVALGMNLRDAIGLSLLAMDYEKDELNTPRIAAAINGSEAFIGIVTADGLMVSRVPEETPVYISTYEQTEPAATEFKAGSPEEAAEFILKGGEFAAFTHPVTAAAAFNDGEGWNLATREM”, “soluble”.

On to “MSQVQEQHISESQLQYGNGSLMSTVPADLSQSVVDGNGNGSSEDIEATNGSGDGGGLQEQAEAQGEMEDEAYDEAALGSFVPIEKLQVNGITMADVKKLRESGLHTAEAVAYAPRKDLLEIKGISEAKADKLLNEAARLVPMGFVTAADFHMRRSELICLTTGSKNLDTLLGGGVETGSITELFGEFRTGKSQLCHTLAVTCQIPLDIGGGEGKCLYIDTEGTFRPVRLVSIAQRFGLDPDDALNNVAYARAYNADHQLRLLDAAAQMMSESRFSLIVVDSVMALYRTDFSGRGELSARQMHLAKFMRALQRLADQFGVAVVVTNQVVAQVDGGMAFNPDPKKPIGGNIMAYSSTTRLGFKKGKGCQRLCKVVDSPCLPEAECVFAIYEDGVGDPREEDE”, for which the “soluble on expression in E. coli” value was “soluble”. For “MGSDKIHHHHHHMKIIQLEYFLAIVKYNSFTKAAQFLHISQPSLTATIKKMEADLGYDLFTRSTKDIKITEKGIQFYRYASELVQQYRSTMEKMYDLSVTSEPRIKIGTLESTNQWIANLIRKHHSDYPEQQYRLYEIHDKHQSIEQSLNFNIHLAITNEKITHEDIRSIPLYEESYILLAPKETFKNQNWVDVENLPLILPNKNSQVRKHLDDYFNRRNIRPNVVVETDRFESAVGFVHLGLGYAIIPRFYYQSFHTSNLEYKKIRPNLGRKIYINYHKKRKHSEQVHTFVQQCQDYLYGLLEAL”, the “soluble on expression in E. coli” value is recorded as “not soluble”. As to “MFEKSFTLCDMEPTEINGGRFYARPLHNDERIDDSPALQLVDAHLTVDEARTAWNHDTIYTWAVCEQTNVEMIALAALHITETATVLDIAPVGDPNRKLPNDPVLTPKTVGDAVTEIRGPITRWCTAHGINISN”, the “soluble on expression in E. coli” value was “not soluble”. As for “MGSDKIHHHHHHMGKHTKFGSSDDEGETETSVAKRQKDEKKEKKKEKRDRSRSPHKERERSPKRDRHPEKNESRRHDDRDQERRRDYGRNDRRDDRRGDGSWKTDRNDRNDRRNDFQRRDDKNRLSAEEIAAQRKALWGNKKVAGESSSSNTTDTASSSSEPATGGKNEKLWSSAIAATGVDSSKANKFMRLMGVKNAPKPTDDSSRLSDEKNRQDKMLNDLEKQYAIARETTHMGRGTGFGFGH”, the “soluble on expression in E. coli” value is on record as “not soluble”.

Consider “NVSVLNFGNTPVSFRQDGFLNATAIASHFGKLPKDYLKSEQTQQYISALAENLSVRRKILTEANQIVIVKRGGSEQGTWLHPKLAIHFARWLNPKFAVWCDEQIEILLNGKISDGI”, for which the “soluble on expression in E. coli” value is listed as “soluble”. The value for “MTTMSGYTRSQRPRQAILGQLPRIHRADGSPIRVLLVDDEPALTNLVKMALHYEGWDVEVAHDGQEAIAKFDKVGPDVLVLDIMLPDVDGLEILRRVRESDVYTPTLFLTARDSVMDRVTGLTSGADDYMTKPFSLEELVARLRGLLRRSSHLERPADEALRVGDLTLDGASREVTRDGTPISLSSTEFELLRFLMRNPRRALSRTEILDRVWNYDFAGRTSIVDLYISYLRKKIDSDREPMIHTVRGIGYMLRPPE” was “not soluble”. In the case of “MGSDKIHHHHHHVDDGPCAARLRWTNSVMTEPLMPQTDVPFDELIIREYLLDNPDFFNRYPELLLAMRLPHMERGAISLVERRQEMLRQRVSQLEEEITSLLTMAARNEKIYQFNTELSFQLLNCADLVSLKEVLADSLKLQFNFSHVRLISVLDTDMKAIWDQRLHKGHYFGRLTQQEAKRLFGSEVGSVALTKLSEDNPVIFAIASQDATHFHPDMDNMLLEQLRRLLAHMLAKL”, the “soluble on expression in E. coli” value is “not soluble”. The result for “MGSDKIHHHHHHMTKVRVAGFGVSLDGFAAGTAQSLDHPLGVRGEEIFQWFFPTRTFRQMLGKEGGDTGLDDRFAQRAMEGFGAFILGRNMFGPVRGEWPDDQWKGWWGDNPPYHAPTFILTHHARPSIEMLGGTTFHFVTGGIEDALEKARKAAGGKDVKIGGGVKTVKQYVQAGYVDEIHLAFAPVALGQGESLFGGLDLRTLGYQTVEHVPTDRATHIVLAK” reads “not soluble”. “MGSDKIHHHHHHENLYFQGMLYHLVMLEPEGEGAMDRIMEAMAILDGLAPELPGLTEFRHGPNRDFEQKSERYPYGFLCTFTDKAALDAYAVHPTHQRAGGMLVASCRNGADGILVVDLEV”: the “soluble on expression in E. coli” value is listed as “soluble”.

As for “MGSDKIHHHHHHMVEKLKPRYSVVWTNKIAEVPQNAWNALAMPLKTPFLEWEWLNNLETSQSATAKTGWLPNHLTLWRDRTLIAAAPLYLKGHSSGEFVFDHQWAELADRIGVQYYPKLLGMTPFTPAEGYRFLIAPGEDEDEITAMMVHEIDTFCSKNRISGCHFLYVDPQWRPMLERHGFTTWLHHSYVWENAGFKTFDDYLKVFNANQRRNIKRERKAVEKAGLRLQPLSGDEIPYSLFPSMYQFYADTCDKFGWWGSKYLTQRFFEQLHNDYRHRVLFVAAYSEEDNSHPLGMSFCLFKGDKLYGRYWGSFQEIDCLHFDACYYAPIEWAIANGIQIFDPGAGGRHKKRRGFPAMPNHSLHRFYNNRLGQIIRPYIKEVNQLEQQEIEAINAELPFSNRDS”, the “soluble on expression in E. coli” value was “not soluble”.
